B1: Protein transport protein (Homo sapiens), Q15437 (parent)
chain: MATYLEFIQQNEERDGVRFSWNVWPSSRLEATRMVVPLACLLTPLKERPDLPPVQYEPVLCSRPTCKAVLNPLCQVDYRAKLWACNFCFQRNQFPPAYGGISEVNQPAELMPQFSTIEYVIQRGAQSPLIFLYVVDTCLEEDDLQALKESLQMSLSLLPPDALVGLITFGRMVQVHELSCEGISKSYVFRGTKDLTAKQIQDMLGLTKPAMPMQQARPAQPQEHPFASSRFLQPVHKIDMNLTDLLGELQRDPWPVTQGKRPLRSTGVALSIAVGLLEGTFPNTGARIMLFTGGPPTQGPGMVVGDELKIPIRSWHDIEKDNARFMKKATKHYEMLANRTAANGHCIDIYACALDQTGLLEMKCCANLTGGYMVMGDSFNTSLFKQTFQRIFTKDFNGDFRMAFGATLDVKTSRELKIAGAIGPCVSLNVKGPCVSENELGVGGTSQWKICGLDPTSTLGIYFEVVNQHNTPIPQGGRGAIQFVTHYQHSSTQRRIRVTTIARNWADVQSQLRHIEAAFDQEAAAVLMARLGVFRAESEEGPDVLRWLDRQLIRLCQKFGQYNKEDPTSFRLSDSFSLYPQFMFHLRRSPFLQVFNNSPDESSYYRHHFARQDLTQSLIMIQPILYSYSFHGPPEPVLLDSSSILADRILLMDTFFQIVIYLGETIAQWRKAGYQDMPEYENFKHLLQAPLDDAQEILQARFPMPRYINTEHGGSQARFLLSKVNPSQTHNNLYAWGQETGAPILTDDVSLQVFMDHLKKLAVSSAC
partner: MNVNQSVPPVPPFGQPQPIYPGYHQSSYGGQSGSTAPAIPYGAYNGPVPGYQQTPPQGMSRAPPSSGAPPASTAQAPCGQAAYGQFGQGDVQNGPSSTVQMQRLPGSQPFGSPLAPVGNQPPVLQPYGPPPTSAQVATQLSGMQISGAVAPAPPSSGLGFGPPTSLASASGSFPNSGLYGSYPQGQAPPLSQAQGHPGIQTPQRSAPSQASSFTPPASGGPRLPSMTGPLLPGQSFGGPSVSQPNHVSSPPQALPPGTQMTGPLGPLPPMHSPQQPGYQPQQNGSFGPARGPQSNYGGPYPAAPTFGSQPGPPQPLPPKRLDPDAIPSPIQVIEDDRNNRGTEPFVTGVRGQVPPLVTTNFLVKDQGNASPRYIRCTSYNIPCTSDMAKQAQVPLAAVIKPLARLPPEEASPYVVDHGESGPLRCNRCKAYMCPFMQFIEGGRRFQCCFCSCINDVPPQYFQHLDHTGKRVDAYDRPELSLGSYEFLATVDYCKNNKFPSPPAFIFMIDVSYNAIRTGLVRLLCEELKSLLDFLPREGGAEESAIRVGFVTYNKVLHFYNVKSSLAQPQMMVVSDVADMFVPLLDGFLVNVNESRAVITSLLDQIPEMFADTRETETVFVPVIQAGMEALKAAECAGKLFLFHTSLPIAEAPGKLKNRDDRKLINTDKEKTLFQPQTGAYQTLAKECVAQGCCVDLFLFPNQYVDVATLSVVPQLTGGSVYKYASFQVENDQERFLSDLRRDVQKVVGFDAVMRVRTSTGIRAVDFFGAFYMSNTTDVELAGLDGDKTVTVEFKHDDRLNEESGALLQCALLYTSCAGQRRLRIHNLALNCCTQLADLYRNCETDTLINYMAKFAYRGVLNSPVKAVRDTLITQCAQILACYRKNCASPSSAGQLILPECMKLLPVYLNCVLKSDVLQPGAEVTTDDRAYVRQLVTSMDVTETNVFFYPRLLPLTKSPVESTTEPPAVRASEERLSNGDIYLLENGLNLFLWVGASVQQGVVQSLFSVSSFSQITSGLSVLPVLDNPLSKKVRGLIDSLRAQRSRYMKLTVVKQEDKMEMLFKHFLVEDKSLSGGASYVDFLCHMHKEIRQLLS
B2: Putative pre-mRNA-splicing factor ATP-dependent RNA helicase DHX32 (Homo sapiens), Q7L7V1 (parent)
chain: MEEEGLECPNSSSEKRYFPESLDSSDGDEEEVLACEDLELNPFDGLPYSSRYYKLLKEREDLPIWKEKYSFMENLLQNQIVIVSGDAKCGKSAQVPQWCAEYCLSIHYQHGGVICTQVHKQTVVQLALRVADEMDVNIGHEVGYVIPFENCCTNETILRYCTDDMLQREMMSNPFLGSYGVIILDDIHERSIATDVLLGLLKDVLLARPELKLIINSSPHLISKLNSYYGNVPVIEVKNKHPVEVVYLSEAQKDSFESILRLIFEIHHSGEKGDIVVFLACEQDIEKVCETVYQGSNLNPDLGELVVVPLYPKEKCSLFKPLDETEKRCQVYQRRVVLTTSSGEFLIWSNSVRFVIDVGVERRKVYNPRIRANSLVMQPISQSQAEIRKQILGSSSSGKFFCLYTEEFASKDMTPLKPAEMQEANLTSMVLFMKRIDIAGLGHCDFMNRPAPESLMQALEDLDYLAALDNDGNLSEFGIIMSEFPLDPQLSKSILASCEFDCVDEVLTIAAMVTAPNCFSHVPHGAEEAALTCWKTFLHPEGDHFTLISIYKAYQDTTLNSSSEYCVEKWCRDYFLNCSALRMADVIRAELLEIIKRIELPYAEPAFGSKENTLNIKKALLSGYFMQIARDVDGSGNYLMLTHKQVAQLHPLSGYSITKKMPEWVLFHKFSISENNYIRITSEISPELFMQLVPQYYFSNLPPSESKDILQQVVDHLSPVSTMNKEQQMCETCPETEQRCTLQ
partner: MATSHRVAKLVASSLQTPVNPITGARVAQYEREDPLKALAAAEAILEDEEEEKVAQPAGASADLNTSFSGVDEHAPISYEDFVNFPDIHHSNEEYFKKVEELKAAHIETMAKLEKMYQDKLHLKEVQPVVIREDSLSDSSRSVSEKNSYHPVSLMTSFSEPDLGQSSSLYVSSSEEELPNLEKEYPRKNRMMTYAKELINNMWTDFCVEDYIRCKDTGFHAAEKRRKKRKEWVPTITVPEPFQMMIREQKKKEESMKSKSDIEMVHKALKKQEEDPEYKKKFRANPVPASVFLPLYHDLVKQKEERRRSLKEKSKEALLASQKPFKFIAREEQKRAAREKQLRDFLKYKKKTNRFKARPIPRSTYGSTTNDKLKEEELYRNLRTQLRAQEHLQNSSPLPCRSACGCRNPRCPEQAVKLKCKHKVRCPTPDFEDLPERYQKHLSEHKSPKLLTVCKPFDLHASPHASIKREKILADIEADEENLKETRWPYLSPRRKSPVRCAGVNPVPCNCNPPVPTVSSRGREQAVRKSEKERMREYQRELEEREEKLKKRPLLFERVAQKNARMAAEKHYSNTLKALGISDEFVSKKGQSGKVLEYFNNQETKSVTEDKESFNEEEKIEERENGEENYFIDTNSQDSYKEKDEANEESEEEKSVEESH
B3: TNF receptor-associated factor 2 (Homo sapiens), Q12933 (parent)
chain: MAAASVTPPGSLELLQPGFSKTLLGTKLEAKYLCSACRNVLRRPFQAQCGHRYCSFCLASILSSGPQNCAACVHEGIYEEGISILESSSAFPDNAARREVESLPAVCPSDGCTWKGTLKEYESCHEGRCPLMLTECPACKGLVRLGEKERHLEHECPERSLSCRHCRAPCCGADVKAHHEVCPKFPLTCDGCGKKKIPREKFQDHVKTCGKCRVPCRFHAIGCLETVEGEKQQEHEVQWLREHLAMLLSSVLEAKPLLGDQSHAGSELLQRCESLEKKTATFENIVCVLNREVERVAMTAEACSRQHRLDQDKIEALSSKVQQLERSIGLKDLAMADLEQKVLEMEASTYDGVFIWKISDFARKRQEAVAGRIPAIFSPAFYTSRYGYKMCLRIYLNGDGTGRGTHLSLFFVVMKGPNDALLRWPFNQKVTLMLLDQNNREHVIDAFRPDVTSSSFQRPVNDMNIASGCPLFCPVSKMEAKNSYVRDDAIFIKAIVDLTGL
B4: Fibronectin type III and SPRY domain-containing protein 2 (Homo sapiens), A1L4K1 (parent)
chain: MEEESGEELGLDRSTPKDFHFYHMDLYDSEDRLHLFPEENTRMRKVVQAEMANESRGAGDGKAQRDLQEEVDELVHLYGLEDDHELGDEFVDENIPRTGVSEYPPYMMKRRDPAREQRDWRLSGEAAEAEDLGFGGWGSAGQCQDLREAYRYTHGRASEEYECYVIPEEEDEEEAADVFCVTCKTPIRAFQKVFDEHKEHEVIPLNEALESAKDEIHKNMYKLEKQIIEMENFANHLEEVFITVEENFGKQEQNFESHYNEILETLAQKYEEKIQALGEKKKEKLEALYGQLVSCGENLDTCKELMETIEEMCHEEKVDFIKDAVAMADRLGKFLKTKTDVEISAQPEFEDQTLDFSDVEQLMGSINTIPAPSAPVINPQVPNSATGSSVRVCWSLYSDDTVESYQLSYRPVQDSSPGTDQAEFTVTVKETYCSVTNLVPNTQYEFWVTAHNRAGPSPSSERAVYMTAPSPPIIKTKEIRSCEEAVLICWESGNLNPVDSYTVELTQAESPEASGVTESVVGIPTCESVVQLQPGRSYIIYVRALNMGGPSVRSEPATVHTIGSYFRLNKDTCHPWLTISEDGLTAVRSERRTPARELSPSDTHFTRCVAVMGNLIPVRGHHYWEVEVDEHLDYRVGVAFADVRKQEDLGANCLSWCMRHTFASSRHKYEFLHNRTTPDIRITVPPKKIGILLDYEHSKLSFFNVDLSQHLYTFSCQLHEFVHPCFSLEKPGCLKVHNGISMPKHVTFY
partner: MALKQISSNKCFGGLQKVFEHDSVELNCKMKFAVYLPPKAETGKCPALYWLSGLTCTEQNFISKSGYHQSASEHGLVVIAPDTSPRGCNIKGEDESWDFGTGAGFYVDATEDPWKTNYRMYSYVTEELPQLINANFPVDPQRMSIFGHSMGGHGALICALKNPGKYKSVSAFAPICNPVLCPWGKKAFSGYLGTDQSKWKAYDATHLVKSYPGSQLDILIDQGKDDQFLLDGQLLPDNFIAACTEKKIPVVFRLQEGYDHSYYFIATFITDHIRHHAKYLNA

Variants of: B1
Conditions: with sc24c_human SEC24C

Variant	effect of a mutation on the interaction
V426I	with no effect

Variants of: B2
Conditions: with FAM161A

Variant	effect of a mutation on the interaction
D301A	with no effect

Variants of: B3
Conditions: with traf1_human TRAF1, Q13077
traf1_human TRAF1, Q13077, sequence (Q13077 whole entry): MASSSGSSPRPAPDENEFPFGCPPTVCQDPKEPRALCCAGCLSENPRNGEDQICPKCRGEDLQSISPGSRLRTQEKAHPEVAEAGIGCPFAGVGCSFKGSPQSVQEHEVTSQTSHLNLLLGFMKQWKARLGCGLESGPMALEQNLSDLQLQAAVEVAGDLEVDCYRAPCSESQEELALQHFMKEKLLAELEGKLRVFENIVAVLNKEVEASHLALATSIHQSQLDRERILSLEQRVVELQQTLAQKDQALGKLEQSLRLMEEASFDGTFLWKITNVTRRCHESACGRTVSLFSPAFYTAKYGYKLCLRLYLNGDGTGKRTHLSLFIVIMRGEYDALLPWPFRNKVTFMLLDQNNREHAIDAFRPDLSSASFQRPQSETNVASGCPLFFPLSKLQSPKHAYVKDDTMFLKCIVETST

Variant	effect of a mutation on the interaction
V206I	with no effect
E276Q	with no effect
K278T	with no effect
A264T	with no effect
T134A	with no effect
D488N	with no effect
D462N	with no effect
V475I	with no effect

Variants of: B4
Conditions: with estd_human ESD

Variant	effect of a mutation on the interaction
K333T	with no effect

From IntAct's records for PubMed 31515488
